Assay results as given in patent US20250340636A1 (Memorial Sloan Kettering, published 2025).

Columns and labels:
human L1CAM on cells [1] = target: T1, human L1CAM on cells (human, UniProt P32004 20-1257); assay: flow cytometry, MDA-MB-231 cells, AlexaFluor 647 anti-human Fc secondary
T1 construct: Overexpressed on stably transfected HEK293T cells or endogenous on MCF-7 and MDA-MB-231 cells; also called HEK293T-hL1CAM
Experimental: (§1) Binding to L1CAM on Cells. […] Cells were then incubated with an AlexaFluor 647 goat anti-human Fc secondary antibody. After washing, the stained cells were analyzed by flow cytometry.
(§2) The binding curves for each antibody and cell line normalized to secondary antibody only staining (MFI ratio) are shown in FIGS. 14A-14C. EC50 values were determined by non-linear regression (Table 70). […] It is possible that differences in the conformation and oligomerization of L1CAM, depending on the surface expression level, contributed to the binding pattern. […] An avidity effect due to high levels of L1CAM surface expression may have contributed to the strong binding observed in this experiment.

[2] = target: T2, soluble mouse L1CAM (monomer), His-tagged (mouse, UniProt P11627 20-1123, limits assumed); assay: BLI (Octet Red96e), His-tagged mouse L1CAM on Ni-NTA biosensors, mAb as analyte, 1:1 fit
T2 construct: read as mouse
T2 sequence (P11627 20-1123 limits assumed): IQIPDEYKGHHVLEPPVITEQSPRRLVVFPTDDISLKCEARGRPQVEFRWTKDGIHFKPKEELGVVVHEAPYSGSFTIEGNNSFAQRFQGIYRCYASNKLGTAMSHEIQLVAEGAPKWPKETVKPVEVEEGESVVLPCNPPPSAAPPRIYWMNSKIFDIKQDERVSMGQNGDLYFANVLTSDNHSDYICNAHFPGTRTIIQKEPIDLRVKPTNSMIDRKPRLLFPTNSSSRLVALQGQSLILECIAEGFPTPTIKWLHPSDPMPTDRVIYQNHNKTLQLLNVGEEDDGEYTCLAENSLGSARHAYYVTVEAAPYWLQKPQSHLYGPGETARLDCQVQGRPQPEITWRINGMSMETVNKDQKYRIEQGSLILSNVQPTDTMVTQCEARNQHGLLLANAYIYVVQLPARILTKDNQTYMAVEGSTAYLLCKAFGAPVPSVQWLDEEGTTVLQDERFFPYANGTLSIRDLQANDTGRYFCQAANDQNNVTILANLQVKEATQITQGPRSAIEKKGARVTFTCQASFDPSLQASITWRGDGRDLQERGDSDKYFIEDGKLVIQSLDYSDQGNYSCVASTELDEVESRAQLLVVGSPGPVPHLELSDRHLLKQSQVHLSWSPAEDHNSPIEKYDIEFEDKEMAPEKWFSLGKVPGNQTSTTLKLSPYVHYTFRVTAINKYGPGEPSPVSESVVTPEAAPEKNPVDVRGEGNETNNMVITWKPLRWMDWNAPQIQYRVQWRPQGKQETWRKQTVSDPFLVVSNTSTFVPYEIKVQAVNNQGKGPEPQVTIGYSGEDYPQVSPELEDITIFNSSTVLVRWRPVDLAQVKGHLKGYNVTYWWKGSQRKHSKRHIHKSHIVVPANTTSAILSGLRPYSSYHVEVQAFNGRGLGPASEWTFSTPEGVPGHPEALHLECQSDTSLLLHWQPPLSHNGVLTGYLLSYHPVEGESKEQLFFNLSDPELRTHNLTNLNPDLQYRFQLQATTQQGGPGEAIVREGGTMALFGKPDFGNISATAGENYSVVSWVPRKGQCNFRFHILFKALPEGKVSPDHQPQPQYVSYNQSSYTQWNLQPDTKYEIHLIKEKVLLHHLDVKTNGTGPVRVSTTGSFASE
Experimental: (§3) Cross-reactivity to Mouse L1CAM. Affinity to mouse L1CAM was measured by BLI using an Octet Red96e instrument. […] The data was prepared by reference well subtraction, and response curves were globally fit to a 1:1 Langmuir binding model.

[3] = target: T3, soluble cynomolgus monkey L1CAM, His-tagged, monomeric (cynomolgus monkey, UniProt A0A2K5URB5 20-1120); assay: summary table; soluble cynomolgus monkey L1CAM (monomer)
T3 construct: also called cyL1CAM protein; cynomolgus L1CAM-His
Experimental: (§4) Cross-reactivity to Cynomolgus Monkey L1CAM. Affinity to cynomolgus L1CAM was measured by BLI using an Octet Red96e instrument. […] The data was prepared by reference well subtraction, and response curves were globally fit to a 1:1 Langmuir binding model.

[4] = target: T3, soluble cynomolgus monkey L1CAM, …; assay: BLI (Octet Red96e), His-tagged cynomolgus L1CAM on Ni-NTA biosensors, mAb as analyte, 1:1 fit
Experimental: as §4

[5] = target: T2, soluble mouse L1CAM (monomer), …; assay: BLI, mouse against human L1CAM-His
Experimental: as §3

[6] = target: T4, mouse L1CAM on transiently transfected HEK293FT cells (mouse, UniProt P11627 20-1260); assay: flow cytometry, HEK293FT cells transiently transfected with mouse L1CAM (data not shown)
T4 construct: whole, on cells; also called mouse L1CAM on cells
T4 sequence (P11627 20-1260): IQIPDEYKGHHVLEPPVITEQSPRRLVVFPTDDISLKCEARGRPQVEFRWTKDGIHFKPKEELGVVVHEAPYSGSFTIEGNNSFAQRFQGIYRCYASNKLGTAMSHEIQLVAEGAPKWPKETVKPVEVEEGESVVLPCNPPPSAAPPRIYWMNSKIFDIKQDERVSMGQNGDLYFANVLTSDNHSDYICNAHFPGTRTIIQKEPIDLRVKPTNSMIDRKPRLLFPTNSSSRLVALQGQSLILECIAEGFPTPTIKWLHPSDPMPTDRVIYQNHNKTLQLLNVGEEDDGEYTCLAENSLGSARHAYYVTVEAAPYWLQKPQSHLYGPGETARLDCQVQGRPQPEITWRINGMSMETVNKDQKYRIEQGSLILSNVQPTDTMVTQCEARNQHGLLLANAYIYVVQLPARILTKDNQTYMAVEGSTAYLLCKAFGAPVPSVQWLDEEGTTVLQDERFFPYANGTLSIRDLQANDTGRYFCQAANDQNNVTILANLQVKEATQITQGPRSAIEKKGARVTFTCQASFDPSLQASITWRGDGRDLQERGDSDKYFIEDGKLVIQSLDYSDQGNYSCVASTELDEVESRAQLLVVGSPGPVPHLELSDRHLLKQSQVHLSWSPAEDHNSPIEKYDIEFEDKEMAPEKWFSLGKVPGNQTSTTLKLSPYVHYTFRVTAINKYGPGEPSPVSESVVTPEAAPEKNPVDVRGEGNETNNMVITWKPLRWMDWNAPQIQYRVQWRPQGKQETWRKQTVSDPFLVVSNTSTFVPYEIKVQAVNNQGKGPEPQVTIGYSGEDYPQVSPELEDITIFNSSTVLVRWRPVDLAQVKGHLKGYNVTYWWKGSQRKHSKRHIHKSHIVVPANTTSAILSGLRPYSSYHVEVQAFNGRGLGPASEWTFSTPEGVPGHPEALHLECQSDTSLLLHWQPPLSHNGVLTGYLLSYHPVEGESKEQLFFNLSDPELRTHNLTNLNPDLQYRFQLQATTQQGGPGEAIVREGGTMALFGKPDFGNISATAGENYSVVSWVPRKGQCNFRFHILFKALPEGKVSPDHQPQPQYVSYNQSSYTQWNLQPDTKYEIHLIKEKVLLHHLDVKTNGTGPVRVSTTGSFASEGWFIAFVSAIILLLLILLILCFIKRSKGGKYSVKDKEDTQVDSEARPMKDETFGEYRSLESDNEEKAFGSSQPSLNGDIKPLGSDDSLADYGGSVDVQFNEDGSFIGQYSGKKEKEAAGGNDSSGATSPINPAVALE

[7] = target: T5, extracellular domain of human L1CAM (isoform 1) fused to a poly-histidine tag via its carboxy terminus (human, UniProt P32004 20-1120); assay: summary table; binding to soluble human L1CAM (monomer)
T5 construct: Bought (Creative Biomart); also called L1CAM-His; huL1CAM protein
T5 sequence (P32004 20-1120): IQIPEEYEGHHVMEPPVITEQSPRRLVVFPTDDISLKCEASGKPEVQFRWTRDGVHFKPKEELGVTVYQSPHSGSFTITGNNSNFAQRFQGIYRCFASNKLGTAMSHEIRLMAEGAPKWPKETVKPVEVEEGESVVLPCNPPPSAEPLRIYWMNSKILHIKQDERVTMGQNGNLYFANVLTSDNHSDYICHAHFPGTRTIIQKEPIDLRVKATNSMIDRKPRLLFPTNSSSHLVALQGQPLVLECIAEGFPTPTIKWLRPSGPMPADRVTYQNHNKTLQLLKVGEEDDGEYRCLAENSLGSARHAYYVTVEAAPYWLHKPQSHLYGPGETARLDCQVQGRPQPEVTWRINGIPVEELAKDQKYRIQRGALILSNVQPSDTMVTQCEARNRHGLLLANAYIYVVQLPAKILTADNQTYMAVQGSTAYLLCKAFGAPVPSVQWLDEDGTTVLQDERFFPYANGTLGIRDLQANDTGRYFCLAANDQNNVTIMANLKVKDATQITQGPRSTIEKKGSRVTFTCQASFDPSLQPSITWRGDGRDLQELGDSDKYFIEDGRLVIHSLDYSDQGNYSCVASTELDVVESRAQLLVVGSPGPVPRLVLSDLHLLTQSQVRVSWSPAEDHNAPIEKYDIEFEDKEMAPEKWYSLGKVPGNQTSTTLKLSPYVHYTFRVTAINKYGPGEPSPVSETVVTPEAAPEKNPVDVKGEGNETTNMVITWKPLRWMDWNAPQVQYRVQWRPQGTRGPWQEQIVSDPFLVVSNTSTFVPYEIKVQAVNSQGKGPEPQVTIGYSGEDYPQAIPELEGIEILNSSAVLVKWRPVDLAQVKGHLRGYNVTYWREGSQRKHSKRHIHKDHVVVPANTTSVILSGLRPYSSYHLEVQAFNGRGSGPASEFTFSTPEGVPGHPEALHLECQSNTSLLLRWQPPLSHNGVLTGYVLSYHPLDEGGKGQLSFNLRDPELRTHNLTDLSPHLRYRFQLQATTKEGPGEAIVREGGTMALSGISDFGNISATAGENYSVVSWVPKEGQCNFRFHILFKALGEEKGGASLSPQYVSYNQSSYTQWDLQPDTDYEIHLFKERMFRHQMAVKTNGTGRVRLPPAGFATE
Experimental: Binding to L1CAM in Solution. Affinity to human L1CAM was measured by BLI using an Octet Red96e instrument. […] The data was prepared by reference well subtraction, and response curves were globally fit to a 1:1 Langmuir binding model.

[8] = target: T2, soluble mouse L1CAM (monomer), …; assay: summary table; soluble mouse protein (row printed as 'mouse CD40 (monomer)', read as mouse L1CAM)
Experimental: as §3

human L1CAM on cells [9] = target: T1, human L1CAM on cells; assay: summary table; binding to cells with endogenous L1CAM (MCF-7)
Experimental: as §1, §2

human L1CAM on cells [10] = target: T1, human L1CAM on cells; assay: summary table; binding to cells with endogenous L1CAM (MDA-MB-231)
Experimental: as §1, §2

[11] = target: T3, soluble cynomolgus monkey L1CAM, …; assay: BLI, cynomolgus against human L1CAM-His
Experimental: as §4

T1 sequence (P32004 20-1257): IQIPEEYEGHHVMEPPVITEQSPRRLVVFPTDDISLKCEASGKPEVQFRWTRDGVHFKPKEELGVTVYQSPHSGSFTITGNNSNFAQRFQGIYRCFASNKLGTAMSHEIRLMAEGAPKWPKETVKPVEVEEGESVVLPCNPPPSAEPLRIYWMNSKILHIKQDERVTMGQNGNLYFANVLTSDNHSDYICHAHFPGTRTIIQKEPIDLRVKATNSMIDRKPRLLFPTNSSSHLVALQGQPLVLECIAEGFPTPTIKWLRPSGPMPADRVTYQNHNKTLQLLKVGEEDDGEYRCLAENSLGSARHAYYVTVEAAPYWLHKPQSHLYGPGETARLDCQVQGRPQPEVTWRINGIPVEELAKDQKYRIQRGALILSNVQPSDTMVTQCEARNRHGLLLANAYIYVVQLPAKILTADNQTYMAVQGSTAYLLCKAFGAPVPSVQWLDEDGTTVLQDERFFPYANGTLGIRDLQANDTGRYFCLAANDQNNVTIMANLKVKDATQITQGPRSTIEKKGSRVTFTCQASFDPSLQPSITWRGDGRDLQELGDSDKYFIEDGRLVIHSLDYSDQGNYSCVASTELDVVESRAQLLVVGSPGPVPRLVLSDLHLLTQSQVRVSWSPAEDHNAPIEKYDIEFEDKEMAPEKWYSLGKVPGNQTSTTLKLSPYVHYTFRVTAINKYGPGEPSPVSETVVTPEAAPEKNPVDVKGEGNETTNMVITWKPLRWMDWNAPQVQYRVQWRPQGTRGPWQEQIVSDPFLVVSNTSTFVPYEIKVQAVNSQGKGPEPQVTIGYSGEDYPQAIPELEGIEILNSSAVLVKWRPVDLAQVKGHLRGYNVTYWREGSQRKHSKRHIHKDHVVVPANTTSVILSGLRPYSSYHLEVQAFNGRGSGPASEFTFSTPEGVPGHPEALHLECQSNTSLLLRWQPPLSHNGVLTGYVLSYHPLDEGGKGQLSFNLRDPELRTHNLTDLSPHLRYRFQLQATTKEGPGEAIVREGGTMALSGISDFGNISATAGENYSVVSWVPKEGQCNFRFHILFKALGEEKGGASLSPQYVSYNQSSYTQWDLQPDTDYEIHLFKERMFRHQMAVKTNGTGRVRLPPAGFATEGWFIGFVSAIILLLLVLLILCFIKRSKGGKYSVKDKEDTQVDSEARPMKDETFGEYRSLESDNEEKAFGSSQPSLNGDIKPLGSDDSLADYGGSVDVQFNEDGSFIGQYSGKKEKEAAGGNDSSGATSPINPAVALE

B1: TDI-Y-005 (antibody, human IgG1, kappa, V domains shown)
VH: EVQMVESGGGLVQPGGSLRLSCAAPGFIFSSYNMNWVRQAPGKGLEWVSYISSSSSTTYYADSVKGRFTISRDNAKNSLYLQMNSLRDEDTAVYYCASLYSGYDYYYYYGMDVWGQGTTVTVSS
VL: DIVMTQTPLSSPVSLGQPASISCRSSQSLVHSDGNTYLSWLQQRPGQPPRVLIYKISKRFSGVPDRFSGSGAGTDFTLKISRVEAEDVGVYYCMQATQFPFTFGPGTKVDIKR
notes: Human IgG1, kappa; also called human 14A10 mAb; fully human 14A10 mAb
**Q.** Which EC50 (human L1CAM on cells [1]) does the source give for B1 here?
**A.** 7.1 nM

**Q.** What about the Kd [2] of the same binder?
**A.** 34 nM

**Q.** What about the koff [2] of the same binder?
**A.** 0.0011 s⁻¹

**Q.** What about the kon [2] of the same binder?
**A.** 31000 M⁻¹ s⁻¹

**Q.** What about the Kd [3] of the same binder?
**A.** 1.3 nM

**Q.** And the koff [3]?
**A.** 0.00012 s⁻¹

**Q.** And the kon [3]?
**A.** 93000 M⁻¹ s⁻¹

**Q.** What about the Kd [4] of the same binder?
**A.** 1.3 nM

**Q.** What about the koff [4] of the same binder?
**A.** 0.00012 s⁻¹

**Q.** And the kon [4]?
**A.** 93000 M⁻¹ s⁻¹

**Q.** What about the “fold difference of KD against human L1CAM” value [5] of the same binder?
**A.** ≤ 8 fold

**Q.** And the EC50 [6]?
**A.** 0.9 nM

**Q.** What about the Kd [7] of the same binder?
**A.** 4.3 nM

**Q.** And the koff [7]?
**A.** 0.00014 s⁻¹

**Q.** And the kon [7]?
**A.** 33000 M⁻¹ s⁻¹

**Q.** What about the Kd [8] of the same binder?
**A.** 34 nM

**Q.** And the koff [8]?
**A.** 0.0011 s⁻¹

**Q.** And the kon [8]?
**A.** 31000 M⁻¹ s⁻¹

**Q.** And the EC50 (human L1CAM on cells [9])?
**A.** 2.5 nM

**Q.** What about the EC50 (human L1CAM on cells [10]) of the same binder?
**A.** 7.1 nM

**Q.** And the “fold difference of KD against human L1CAM” value [11]?
**A.** ≤ 3.3 fold
